In patent publication US20250339569A1 (3B PHARMACEUTICALS, published 2025):
Blank lines part the entries; values can stand above or below the binder they belong to. Starred links: 1 amine or outer side, 2 acyl side, 3 side chain; linkers in the order of their positions; H or OH if unused. Positions of bridges follow the written chain, without caps; N, C: chain ends. Non-standard residues stand in square brackets, D forms with d. Groups on a side chain read outwards from the residue. Primed or numbered codes have the meaning given here. *: point of attachment. DOTA = O=C(O)CN1CCN(CC(=O)O)CCN(CC(=O)*)CCN(CC(=O)O)CC1; 1Nal = N[C@@H](Cc1cccc2ccccc12)C(=O)O; mXylylene = c1cc(C[*:1])cc(C[*:2])c1; NMeS = CN[C@@H](CO)C(=O)O; AGLU′ = not defined here; APAc = not defined here; Apr = not defined here; Sar = CNCC(=O)O

Experiments:
[1] = biological target: human carbonic anhydrase 9 (CAIX) (human, UniProt Q16790 38-459); assay: FACS competition on HT-29 cells against tracer 3BP-2776; pIC50 category A = pIC50 >8.0
[2] = biological target: human carbonic anhydrase 9 (CAIX) (human, UniProt Q16790 38-459); assay: FACS competition on HT-29 cells, competitor tracer 3BP-2776; category A = pIC50 >8.0
Procedure: CAIX-expressing human HT-29 colorectal cancer cells (DSMZ, RRID: CVCL_0320) were cultured in McCoys's 5A modified medium (Biochrom, #F1015) including 10% fetal calf serum (FCS), 2 mM L-glutamine, 100 U/ml penicillin and 100 μg/mL streptomycin. Cells were detached with Accutase (Biolegend, #423201) and washed in FACS buffer (PBS including 1% FCS). Cells were diluted in FACS buffer to a final concentration of 500.000 cells per ml. 200 μL of the cell suspension were transferred to a u-shaped non-binding 96-well plate (Greiner) and cells were washed in ice-cold FACS buffer.
When biotinylated compounds were used an additional incubation step with 1 μg/mL APC-Streptavidin (Miltenyi; #130-106-791) in 50 μL FACS buffer for 30 minutes on ice was performed.
Cells were washed twice with ice-cold FACS buffer and analyzed in an Attune NxT flow cytometer (Thermo Fisher). Median fluorescence intensities (MFI) of the APC/Cy5-channel were calculated by Attune NxT software.

B1: 3BP-3314 (peptide)
peptide: Ac-VYCE[Sar]D[1Nal]LTWQC-NH2
modifications: linker 3-12 via mXylylene
SMILES: CC(=O)N[C@H](C(=O)N[C@@H](Cc1ccc(O)cc1)C(=O)N[C@H]1CSCc2cccc(c2)CSC[C@@H](C(N)=O)NC(=O)[C@H](CCC(N)=O)NC(=O)[C@H](Cc2c[nH]c3ccccc23)NC(=O)[C@H]([C@@H](C)O)NC(=O)[C@H](CC(C)C)NC(=O)[C@H](Cc2cccc3ccccc23)NC(=O)[C@H](CC(=O)O)NC(=O)CN(C)C(=O)[C@H](CCC(=O)O)NC1=O)C(C)C
notes: also called Ac-Val-Tyr-[Cys(3MeBn)-Glu-Nmg-Asp-1Ni-Leu-Thr-Trp-Gln-Cys]-NH2
pIC50 [1]: > 8 pic50

B3: 3BP-3957 (peptide)
peptide: Ac-VYCE[dP]KWL[dE]WSC-NH2
modifications: linker 3-12 via mXylylene; lactam 6-9
SMILES: CC(=O)N[C@H](C(=O)N[C@@H](Cc1ccc(O)cc1)C(=O)N[C@H]1CSCc2cccc(c2)CSC[C@@H](C(N)=O)NC(=O)[C@H](CO)NC(=O)[C@H](Cc2c[nH]c3ccccc23)NC(=O)[C@H]2CCC(=O)NCCCC[C@H](NC(=O)[C@H]3CCCN3C(=O)[C@H](CCC(=O)O)NC1=O)C(=O)N[C@@H](Cc1c[nH]c3ccccc13)C(=O)N[C@@H](CC(C)C)C(=O)N2)C(C)C
pIC50 [2]: > 8 pic50

Binder: {DOTA-APAc}-VYCQ[dP]DWLTWSC-NH2 (linker 3-12 via mXylylene; reading uncertain) [3BP-4104]
pIC50 [2]: > 8 pic50

Binder: {DOTA-APAc}-VSCE[dP]DWLTWSC-NH2 (linker 3-12 via mXylylene; reading uncertain) [3BP-4105]
pIC50 [2]: > 8 pic50

Binder: {DOTA-APAc}-VE(AGLU′)CE[dP]DWLTWSC-NH2 (linker 3-12 via mXylylene; reading uncertain) [3BP-4112]
pIC50 [2]: > 8 pic50

Binder: {DOTA-APAc}-VYCE[dP]DWLE(AGLU′)WSC-NH2 (linker 3-12 via mXylylene; reading uncertain) [3BP-4121]
pIC50 [2]: > 8 pic50

More lines, now with the values ahead:

pIC50 [2]: > 8 pic50
Binder: Ac-VFCE[dP]DWLTWE([Apr-DOTA])C-NH2 (linker 3-12 via mXylylene; reading uncertain) [3BP-3874]

pIC50 [2]: > 8 pic50
B2: 3BP-3890 (peptide)
peptide: Ac-VYCE[dP]KWLEWSC-NH2
modifications: linker 3-12 via mXylylene; lactam 6-9
SMILES: CC(=O)N[C@H](C(=O)N[C@@H](Cc1ccc(O)cc1)C(=O)N[C@H]1CSCc2cccc(c2)CSC[C@@H](C(N)=O)NC(=O)[C@H](CO)NC(=O)[C@H](Cc2c[nH]c3ccccc23)NC(=O)[C@@H]2CCC(=O)NCCCC[C@H](NC(=O)[C@H]3CCCN3C(=O)[C@H](CCC(=O)O)NC1=O)C(=O)N[C@@H](Cc1c[nH]c3ccccc13)C(=O)N[C@@H](CC(C)C)C(=O)N2)C(C)C

pIC50 [2]: > 8 pic50
Binder: {DOTA-APAc}-VYCE[dP]NWLTWSC-NH2 (linker 3-12 via mXylylene; reading uncertain) [3BP-4103]

pIC50 [2]: > 8 pic50
Binder: {DOTA-APAc}-VYCE[dE](AGLU′)DWLTWSC-NH2 (linker 3-12 via mXylylene; reading uncertain) [3BP-4119]

pIC50 [2]: > 8 pic50
Binder: {DOTA-APAc}-VYC[NMeS][dP]DWLTWSC-NH2 (linker 3-12 via mXylylene; reading uncertain) [3BP-4108]

pIC50 [2]: > 8 pic50
Binder: {DOTA-APAc}-VYCE[dP]DWLTWEC-NH2 (linker 3-12 via mXylylene; not fully specified (residue 11); reading uncertain) [3BP-4122]
